PMC4141209 (FEBS Open Bio, 2014)

Biological target: the molecule itself
Assay: SEC

B1: TlLhpH (trans-3-hydroxy-L-proline dehydratase from Thermococcus litoralis DSM 5473) (enzyme, UniProt H3ZMH8 1-348, looked up)
chain: MFKKLENLEKWEPPKDWMVIKTLDTHTAGEPLRIILSGFPEIPGKTILEKRRYLMENLDHLRKALMWEPRGHADMYGAIITEPVSEEADFGVIFMHNEGYSTMCGHATIALGKVAVECGLVEAKEPITEIKMDSPAGLIKIYVKVRDGKVEKVYFHNVPSFVLFKDETINVPGIGEVKYDLAYGGAFYAFVNAEEIGLKCTPEYYRQLIDVGMKIKRAIMSEKEIRHPFEEDLSFLYGTIFIGEPEDENSHSRHVCIFADGEVDRSPTGTGVSARLAILYEKGEIDIGEEITIESIIGTKFTGKVVEETRYGLYRAIIPEVGGNAYIVAKNTFLIDPQDPLKYGFFLR
  stoichiometry N: 2
